This is an account of results in the DeepSol protein solubility set.

The series in a line: soluble on expression in E. coli; label from the status in PepcDB or PDB records.
Turning to “MSESSRIREKYPDRIPVIVEKAGQSDVPDIDKKKYLVPADLTVGQFVYVVRKRIKLGAEKAIFVFVKNTLPPTAALMSAIYEEHKDEDGFLYMTYSGENTFGSLTVA”, the “soluble on expression in E. coli” value is on record as “soluble”.
Regarding “GPGSMVAKQSTAKGGSRYPPLTADQEKEVTELMELMRTKYDPLPQQLLALQRYNPQMEGTASEGAVAGTFFSPIRNYCYYFLISREWDRQKSFEMMQLSVSYREKNELDSRAELPSAICCRGWEQEKVRIALDKPARPTSQRLDRLSAGIEQYFTFGLHYWDKHGQPVVYLNLGSVDEPGLLKKLKQLANIGQTPNLVMWELVQHLIGVQEQLLFYQQMQYAAGTLKAEADDGLIRSATIVIDLNGLTYKMLWKPALDLFMNMLQTLFQYYPKCVHQILLVNSPPMVMFAYKIVRGALPHGVQRKVHIVNVADTPATMQSFIDAQYVPDYLGGLCHCEGGCVRGYDPHQRGTMKDSGTAKSDTRNVQSGDQDDEAGVVTEEITLKAGQELKRAFSLKRAESVVWEFVSANGRDVAFSTYFVPKKAAPSIDTSKLPTSMLESYVVSKASPSEGSDKYTASDDGIFVIVWDNKKSWFTAKYLQLNVFKQAATLTDGA”, the “soluble on expression in E. coli” value is “not soluble”.
As for “DDFLTLDACKIALKEMKKGFDLLCFDAFVHRVKTKQFYRFKQDEFFNQKEFLEFLSKQRHFCWSVWAKCFRKDIILKSFEKIKIDERLSYGEDVLFCYVYFMFCEKIAVFKTCIYHYEFNPNGRYENKNKEILWQNYQDKKKSNELVKKLCLNFKNNDFHKKLFEVLEKEEFDLQRRVDEARN”, the entry is “not soluble”; as for “MCYIEITKDNIEDNHICCALSTKQYEHAVNEKKRWLKARMDEGLVFYRLHERAKVFIEYLPANEAWVPINAPNFMYINCLWVSGRYKNNGHAKRLLDKCIADAKACGMDGIIHIAGKKKLPYLSDKHFFEHMGFTLQDEAAPYFQLMALTWNGLADSPAFKSQVKSDSINEKGITIYYTAQCPFAVGMINDLRELTEKKGVQFQSIQLSSKEEAQKSPAIWTTFSVFFDGRFVTHEIMSINKFEKLLNTLA”, “not soluble”; as for “MQWETVIGLEIHAQLATQSKIFSGSSTAFGAAPNTQASLVDLAMPGTLPVLNEEAVRMACLFGLAIDARIDRQNVFARKNYFYPDLPKGYQTSQMDHPIVGKGHLDITLEDGTTKRIGITRAHLEEDAGKSLHEDFQGMSGIDLNRAGTPLLEIVSEPDIRSAKEAVAYVKAIHALVRYLGICDGNMAEGSLRCDCNVSVRPKGQAEFGTRAEIKNVNSFRFIEKAINHEIQRQIELIEDGGKVVQETRLYDPNKDETRSMRGKEEANDYRYFPCPDLLPVVIEPEYLAKLREQLPELPVQKRERFESQYGLSAYDASVLSASREMADYFEKVQGICGDAKLAANWVMVELGSLLNKDGLEIEQSPVSAEQLGGMILRIKDNTISGKLAKMVFEAMANGEGSADQIIEAKGLKQVTDSGAIEKMLDEVLAANAEQVEQYRAADEAKRGKMFGFFVGQAMKASKGKANPQQVNELLKKKLEA”, “not soluble”.
On to “MNRRVPKSKSWKTRLSAGGANRTSLHGQMSRYPEVAEDYLIMQPSIRRSSGSDLMPVARFNNFKRWNSCLQHVESQPEDIREWDPPPPSSHCPQIYHKSQYSRRERSPDILTDDRGRPIPRRGMFLNAKYSEAARPPIDEDRIRHTEDVIKRMLYKGRRKESMGYYPNRNHLMRDQIRQTVYNLGVPNGYRAPEQDHFEDDYDDQPGPSNRHYGVSSHPEYYREDRWRLAEGDYEVDKGDGSRQLNKEKYLKKRRKQMIERESVDSEISEEEEEEEIYNKQTKRRRSQKTPIQHNKNRTESRLHQKEKSSSDEEVHEKSTSSRHSNVSRSSKSPYLNDDRAPSRGSKCTSSHHSTPKLLTPSPQYLKDSDDDDNWKNSIPFMSSSDGAGAGMRVRIGSAIASLPLRDDSKNSYSEVALMLLERSVKNLKNPQKMLIKEKPQTRIMNMSTSWAQQDPKKRNENDDDEIVPETEKAETSLMHDLSRIQHPQNATTVQMDQTLFTNSKLMKIDVAIAKNWLDTKMKKTLIPPPLFRSSPISEDVFKSSDRITMPSTIKGPESTAVGNRISSDGEEEDFATKQFDIDDYIARGASKIDFSKTITAPNTSFQEPSTSLFKDPTFFRQESKGNEMNIESFSERTPSKNRTSQQMEFQISTSSISKTKTNASLDSIHRRKSKPQPMLEFDAETQKMFDDAFQSDKKSTKEKYPF”, for which the “soluble on expression in E. coli” value is recorded as “not soluble”.
As for “MGFLNKLLSSEGPRKPKVKFDLQKCKVLLKGGENRIRLQKSKLAVCNLLASPVPALKNLFNKNSVKLQQREVAVLLEGGKDELARIRAEQMVRDELLIESYEIVEVLCETLLTRHNLLALNFHATKENPYPPLPPEIAEAVCSIAFASCRLDASELQTLTEMLASRFGPELIDSACAGQPSQRVWGVNSLVNPRLYSKLLYSVPDGNVVLQKLQDIADMFQLEWKAPAEFEELKDHSVLDSTASTPVFSGNAQRARYLPEASSFSDEKIGDDVFCTNESEQTEEGRDPSDDLSARLEALKRNR”, the entry is “not soluble”.
The result for “MPEITRRRALTAAAAVAATASAAVTLAAPAASAAGHHEPAAPESFDEVYKGRRIQGRPARGAAHHHEHGGGYEVFVDGVQLHVMRNADGSWISVVSHFDPVPTPRAAARAAVDELQGAPLLPFPANLEHHHHHH” reads “soluble”; that for “GPGSMTYKLLAPLHPESARAQKIMVAAAYANVDVELKVCQYGQENETPEFARNCSPCMRFPSMQTEEGYLFESNAIMRHIARVEKSGAKLYGATPFESSQVDMWLDFASSELDAHNTPYLMETFAGIPAPESAMATLEESLAGLELWLETRTFLVGERMTVADISVAFALQWVYRMNVKHGEELTKKYRNAYRLYNTVMQQPKTVEVLKQWGATFGPAKAPKKAAEAKPKEGKKPKEAVEDEEEQPAKEEKKSNPLDALPPSSFVLDAYKREYSNTDTRTVAAPYFFEHYDAEGYTCFWARYKYNEDNKKQFMTANLVRGWFQRMEHVRKYAFGVALIIGEDAAHELVSFWVFRGKGMPEIVSEVVDTELFEWEEIKDVQAAKEKITDYLCWEGPTIPRPVLEGRCFK”, “soluble”; that for “MCRYARSYLLHAFDYTLFVKARLNMAFMISMPAIELAGLTIQVCQFDPQQFDEDQQHYLAPPTYHSLHKAVVKRQAEFVAGRKLAQQALKQIGQGYDRPIAIGTHREPLWPAGITGSIAHCDGWAVCTVLKAEHLSLGIDIEHRLAHQTASEVQAIIGTAQEWALLAQQFDLASAVTLLFSAKESLFKALFPQVHLYLDFCDAQLSSLEPNKMSFTLTRVPNAAQQSCEVYFRWFEQQRVLTVSVLPMLGKIEYHVPTLPT”, “not soluble”.
As for “MQANGVWSLQPLADMSAAEFRDWQVLLENRTGVVLNEQRRTFLQASLTARMRELGIGDYHSYYRQVTDGPRGAVEWATLLDRLTVQETRFFRHPPSFELLERYLGERLRREGMPRPWALWSVGCSSGEEPYSLAMCAAQVLRGQEREDFFGVTGTDISLHALQRARQANYPARKLEQLEAGLVERYCERQADGSFSVKTILTERVCCARLNVLDLAKAPWSGMDVIFCQNLLIYFRRWRRREILNRLAERLAPGGLLVIGVGEVVDWSHPELEPVADERVLAFTR”, the entry is “not soluble”; as for “MHKVLVPFDGSEHAMRALGYVIELSGDLNKPLEVHVLNVQASPIDYSLYLAPDMIDGVKAGLKNEGKRVLDDAIALLAAAGVPFQAHVDLGNVAEQVEAEVQRLGCDAVVMGTRGLGNFGGLLLGSVATRVIHEVSVPVTLIK”, “not soluble”; as for “MEKQKTFHVAVVGATGAVGEQMLNTLEKREFPIGKLTLLSSKRSAGKKLVFKGEEFTVQEATPESFEGVDIALFSAGGSVSKQLAPEAAKRGAIVVDNTSAFRMTENVPLVVPEVNENDLKEHNGIIANPNCSTIQMVVALEPVRQQYGLKRVIVSTYQAVSGAGAAAIEELHEQSQAILNGEEVKANVLPVSGDKKHFPIAFNAIPQIDKFQDNGFTFEEMKMINETKKIMHMPELEVAATCVRLPVVSGHSESVYIEVEKEGVTVEELKSLLANAEGIVLQDNPEEQLYPMPATAVGKNEVFVGRIRKDLNNDKGFHLWVVSDNLLKGAAWNSVQIAERLVKLQLV”, “not soluble”.
Consider “MGSDKIHHHHHHSCTQDSDTFYPSSPEEEHPSVDESRMIPIQLSVDGVDQFYGGAVTRSGETVARLVQPLDSTYDTGYDVETTVESIPLENIVSTRANLGNVQFRVVAYRTDASSADHYAGTAVYKTNGSGVAAIVAKTATPVNSAGQWILGPGTYTFVCYSYGLNSAPAMLSGNWSATVSHNQDFMLCRKEEVVVAPDDRGEFTLGGISFTRQCALLQLAVTANDFTNNTVQQCAATVSNLNSNNITWNAGQTALSTGGTGGAVNFSWSSLNAATVNSNVYKVLPQSSRTLTIKLTTLRIGNIQYNNRVTVNASGRQFAAGGNYKITVKITGNGITVGGATWAKGNVYKSGSNFYFESSQSGYHSGTQGGSFFGWNTLSSTNNTYGGSSFSSDNDPCYQVAPRGTWCTPTANQLQNLGNSGYRSGYLDGKRGGYFGGNKVFLPAMGNRGKNNVNYWPETGYYRSSTGASGKRCYYLEFNQSYAVKNNYYWYWDGFPIRCVKR”, for which the “soluble on expression in E. coli” value was “not soluble”.
As for “MAATVRNLPALFRGLHSKEVCQKMSFSVSAAAKSEILVDTHGSKKVVTLNRPKALNALNLEMVREFYPKLQAWNSSSDVDLVILKGSGDKAFCAGGDVLAVVRSFKDSESGKECTMHKDFFREEYILNHLIGTLNKQYVCLIDGIVMGGGCGLSVNGRFRVATEKTMLAMPETALGLFPDVGGSYFLSRLKGNLGMYLALTGYRLLGADAFHAGLATHFVESSELAKLEKELVNIKDVTENSVDEVIRSFEPKKIPEFSLSKNLAQIRDSFKAKSVEEILASLEKDGSDWAKKQAATLGKMSPTSLKVTHRQITEGSKMSYAKIFTMEYRLTQRFLADKDFHEGCRAILVDKDRKPKWNPATLADVKDSVVDNYFSPLPNNSDLKL”, the entry is “not soluble”; as for “MVLSQTHHHHHRHEGNDRSLISILTDPIVNLFRSIPIEILDQNEELSPSQKDFLDDFLELQNDSDLEESEDFIQESQEVVSSVDDEIKVILNEIINQVETETQLIPKIIIHSDDAEVPEESIEIAVQSFGCPLDSFSGLSDSGVDLTVDDVPDDEDDEITVQTFESTPKELPTVTKFTNCTFIRSQSSARCKAILPDTTYICTLPPVSATFSAPVVTPKKIVKRKKSTSAAAKMAAEVLQNEPHCFIAPSSSIDRPFKLLVQKETFLIDAESMSRISPIFNVMCFGKDFEKMDLSREIVDEKSNDIDCFLRAVHDTSMINSSNFALVLRLSNKYQVDPVIDACQNFIIRQHLDVLRADEILTMLIAAFEHHCKREVVQKLIKRLASEGNSVFTKLKISRYLPAQVYGSVISTSMNLNQAKEHELMNGHVLKMERSKIRWRQSVCEECKSVAECANCEECKKTVCRNHVSKLKCSSDYGAKLAADLKKKIVDFEWQD”, “not soluble”.
As for “MSGRVGDLSPRQKEALAKFRENVQDVLPALPNPDDYFLLRWLRARSFDLQKSEAMLRKHVEFRKQKDIDNIISWQPPEVIQQYLSGGMCGYDLDGCPVWYDIIGPLDAKGLLFSASKQDLLRTKMRECELLLQECAHQTTKLGRKVETITIIYDCEGLGLKHLWKPAVEAYGEFLCMFEENYPETLKRLFVVKAPKLFPVAYNLIKPFLSEDTRKKIMVLGANWKEVLLKHISPDQVPVEYGGTMTDPDGNPKCKSKINYGGDIPRKYYVRDQVKQQYEHSVQISRGSSHQVEYEILFPGCVLRWQFMSDGADVGFGIFLKTKMGERQRAGEMTEVLPNQRYNSHLVPEDGTLTCSDPGIYVLRFDNTYSFIHAKKVNFTVEVLLPDKASEEKMKQLGAGTPK”, the entry is “soluble”; as for “MSLDEEKVGTEVPDPEISKMLFSEFCKSDGIGVSDVTKEEEFRYEDAWLTGYTYTQEVSIADLTEIISHSLTIQYGNNRSSVTFTDEIGTERKYTLNEEGYATQCEYASLDQKRQYTFLYTDGYLTQVNEKIMPREGSSDAVVAHTLSLQYDKGDLISTISPSLPYESSTGYGKLQTNYEAGEDINYYRLPCMLVADTYPLSFHREALFAGMLGKPTQHLTTASYPEKTSDTYTERTEYTYSFDKNKKPVSLKVSTKYGNGKSISYLNRTISITIEGHHHHHH”, “soluble”.
